This is an account of results in PMC9853002, “Tumor treatment by pHLIP-targeted antigen delivery” (Frontiers in Bioengineering and Biotechnology, 2023).

Data set [1] in a line: pH-dependent interaction of HA-pHLIP agents with POPC liposomes (tryptophan fluorescence). Format: physicochemical. The conditions noted are these: 7 μM agent, 25°C; for cooperativity (n) of state II to state III transition / mid-point (pK) of state II to state III transition: pH-dependent insertion into POPC liposome bilayer, shift of fluorescence maximum vs pH, Henderson-Hasselbalch fit; for cooperativity (n) of state II to state III transition / mid-point (pK) of state II to state III transition / λmax in state III / λmax in state II: 1.4 mM POPC; for λmax in state I / λmax in state III / λmax in state II: position of tryptophan fluorescence maximum, excitation 295 nm; for λmax in state I: HA-pHLIP in solution at pH8; for λmax in state III: HA-pHLIP with POPC liposomes at pH3 (membrane-inserted); for λmax in state II: HA-pHLIP with POPC liposomes at pH8 (membrane-adsorbed).

Data set [2] concerns murine mammary carcinoma 4T1 cells. The data set can be described thus: Treatment with HA-pHLIP agents in 4T1 tumor mouse model. It counts as in vivo. The conditions noted are these: 4T1 flank tumors in BALB/c mice immunized with KLH-HA/CFA and KLH-HA/IFA; IP 40–60 µM 400 μl every second day from day 3 or 4; tumors weighed typically days 17–19; mean of control group = 100%.
In the next data set the test system is anti-HA antibodies. The conditions noted are these: mouse, in vivo, ip.
In data set [3] the test system is murine melanoma B16F10 cells. The conditions noted are these: B16F10 flank tumors in BALB/c mice immunized with 2 injections of KLH-HA/AddaVax; IP 40 μM 400 μl on days 1, 2 and 3 from about 100 mm^3; tumors weighed day 7; mean of control group = 100%.
Data set [4] has as its system murine melanoma B16F10 cells. The data set can be described thus: Treatment with Gal-pHLIP in B16F10 tumor model in A3galt2 knockout mice. It counts as in vivo, mouse. The conditions noted are these: B16F10 tumors in A3galt2 knockout mice immunized with HSA-Gal/CFA and HSA-Gal/IFA; IP 80 μM 450 μl each day for 10 days; tumors weighed day 12; versus untreated control; statistically significant. As for the experimental part:
A3galt2 knockout female and male mice were immunized by IP injection of Galα1-3Galβ-4Glc-HSA (HSA-Gal) (Dextra Laboratories) (day 1) (HSA is human serum albumin), at a concentration of 0.2 mg/ml emulsified at a ratio 1:1 with CFA. On days 14 and 21 after the first immunization, mice were boosted by IP injection of 200 μl of HSA-Gal (0.2 mg/ml) emulsified at a ratio 1:1 with IFA.
A3galt2 knockout female and male mice immunized with HSA-Gal and CFA/IFA adjuvants received a single SQ injection of 10^6 murine melanoma B16F10 cells (ATCC CRL-6475) in the right flank on day 1. On day 2, mice were randomized into groups and tri-Gal-pHLIP was administered via IP injections each day (80 μM 450 μl per injection). […] All mice in the control and treated groups were euthanized on day 12, tumors were collected and weighed.
The Kolmogorov-Smirnov two-tailed non-parametric test was used to compare two samples at a significance level of 0.05.

In the case of “(Az)GGK[HA-Peg12]GGGK[HA-Peg12]PWRAYLELLFPTETLLLELLLA [2(HA-Peg12)-pHLIP4]”, in data set [1], the “cooperativity (n) of state II to state III transition” value (“cooperativity (n) of state II” for short) is listed as 1.3, the “mid-point (pK) of state II to state III transition” value (“mid-point (pK) of state II” for short) was determined as 5.8, the “λmax in state I” value turned out to be 347 nm and the “λmax in state III” value was 337 nm. The “λmax in state II” value in data set [1] was determined as 344 nm. This substance displayed a Norm. tumor weight in data set [2] of 55.3%.
As to “AK[HA-Peg12]QNDDQNK[HA-Peg12]PWRAYLDLLFPTDTLLLDLLWA [2(HA-Peg12)-pHLIP3]”, in data set [1], the “cooperativity (n) of state II” value was found to be 1.9, the “mid-point (pK) of state II” value came out at 4.8, the “λmax in state I” value is 351 nm and the “λmax in state III” value was 337 nm. Besides, the “λmax in state II” value in data set [1] is 351 nm. The same substance displayed a Norm. tumor weight in data set [2] of 61.3%.
Take “AK[3xHA-Peg12]QNDDQNK[3xHA-Peg12]PWRAYLDLLFPTDTLLLDLLWA [2(3xHA-Peg12)-pHLIP3]”: in data set [1], the “cooperativity (n) of state II” value came out at 1.9, the “mid-point (pK) of state II” value worked out at 4.8, the “λmax in state I” value amounted to 351 nm and the “λmax in state III” value came to 337 nm. For the same substance, the “λmax in state II” value in data set [1] came out at 351 nm. The substance further displayed a Norm. tumor weight in data set [2] of 61.6%.
For the substance “(Az)GGK[HA-Peg12]GGGKPWRAYLELLFPTETLLLELLLA [HA-Peg12-pHLIP4, v1, single HA-Peg12 on first Lys of pHLIP4]”, in data set [1], the “cooperativity (n) of state II” value turned out to be 1.7, the “mid-point (pK) of state II” value came to 6.4, the “λmax in state I” value came to 347 nm and the “λmax in state III” value is listed as 337 nm. The “λmax in state II” value in data set [1] turned out to be 343 nm.
With “(Az)GGKGGGK[HA-Peg12]PWRAYLELLFPTETLLLELLLA [HA-Peg12-pHLIP4, v2, single HA-Peg12 on second Lys of pHLIP4]”, in data set [1], the “cooperativity (n) of state II” value was 2.2, the “mid-point (pK) of state II” value amounted to 6.8, the “λmax in state I” value was 348 nm and the “λmax in state III” value is 337 nm. In addition, the “λmax in state II” value in data set [1] is on record as 343 nm.
On to “K(N3)[HA-Peg12]GGGGGK(N3)[HA-Peg12]PWRAYLELLFPTETLLLELLLA [2(HA-Peg12)-pHLIP5]”, for which, in data set [1], the “cooperativity (n) of state II” value is given as 0.9, the “mid-point (pK) of state II” value was found to be 6.2, the “λmax in state I” value was 347 nm and the “λmax in state III” value was determined as 340 nm. Besides, in data set [1], the “λmax in state II” value amounted to 346 nm. Further, the “amount of anti-HA antibody in serum after treatment” value in the data set with anti-HA antibodies is given as “dropped significantly (close to background level)”. Besides, in data set [3], the Norm. tumor weight stood at 56.5%.
Turning to “AK[HA-Peg24]QNDDQNK[HA-Peg24]PWRAYLDLLFPTDTLLLDLLWA [2(HA-Peg24)-pHLIP3]”, in data set [1], the “cooperativity (n) of state II” value worked out at 0.9, the “mid-point (pK) of state II” value is 4.6, the “λmax in state I” value turned out to be 351 nm and the “λmax in state III” value was determined as 337 nm. Besides, in data set [1], the “λmax in state II” value was 350 nm. In data set [2], this substance registered a Norm. tumor weight of 62.9%.
In the case of “(Az)GGK[HA-Peg24]GGGK[HA-Peg24]PWRAYLELLFPTETLLLELLLA [2(HA-Peg24)-pHLIP4]”, in data set [1], the “cooperativity (n) of state II” value came out at 0.7, the “mid-point (pK) of state II” value turned out to be 5.8, the “λmax in state I” value is 347 nm and the “λmax in state III” value came out at 336 nm. Also, the “λmax in state II” value in data set [1] was determined as 347 nm.
For “Galα(1,3)Galβ(1,4)Glc-Peg4-NHC(O)-AADDQNPWRAYLDLLFPTDTLLLDLLWA-OH [Gal-pHLIP]”, in data set [4], the “reduction of tumor growth” value was 66%.
